Reference: patent EP2373335B1 (Eli Lilly and Company, dated 2016)

T1: human ferroportin 1 (human, UniProt Q9NP59 1-571)
T1 sequence: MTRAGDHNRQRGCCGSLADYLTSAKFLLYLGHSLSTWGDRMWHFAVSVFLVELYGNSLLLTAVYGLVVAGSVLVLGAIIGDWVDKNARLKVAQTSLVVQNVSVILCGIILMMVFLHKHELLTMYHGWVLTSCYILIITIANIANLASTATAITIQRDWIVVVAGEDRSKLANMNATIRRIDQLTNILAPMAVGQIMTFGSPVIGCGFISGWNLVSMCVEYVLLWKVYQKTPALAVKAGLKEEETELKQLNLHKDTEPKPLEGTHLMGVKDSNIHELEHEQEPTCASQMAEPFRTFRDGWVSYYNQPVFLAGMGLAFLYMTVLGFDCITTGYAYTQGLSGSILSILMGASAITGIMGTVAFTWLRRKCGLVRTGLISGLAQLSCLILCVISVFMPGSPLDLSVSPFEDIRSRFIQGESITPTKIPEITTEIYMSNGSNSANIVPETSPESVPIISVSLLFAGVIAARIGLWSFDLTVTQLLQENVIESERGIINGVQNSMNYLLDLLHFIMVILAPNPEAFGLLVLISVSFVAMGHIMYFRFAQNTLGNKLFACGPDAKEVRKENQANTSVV

T2: FPN1-GFP (human, UniProt Q9NP59 1-571, A GFP reporter is fused to the C terminus of FPN1. Its letters are not given, so it is left out.)
T2 sequence: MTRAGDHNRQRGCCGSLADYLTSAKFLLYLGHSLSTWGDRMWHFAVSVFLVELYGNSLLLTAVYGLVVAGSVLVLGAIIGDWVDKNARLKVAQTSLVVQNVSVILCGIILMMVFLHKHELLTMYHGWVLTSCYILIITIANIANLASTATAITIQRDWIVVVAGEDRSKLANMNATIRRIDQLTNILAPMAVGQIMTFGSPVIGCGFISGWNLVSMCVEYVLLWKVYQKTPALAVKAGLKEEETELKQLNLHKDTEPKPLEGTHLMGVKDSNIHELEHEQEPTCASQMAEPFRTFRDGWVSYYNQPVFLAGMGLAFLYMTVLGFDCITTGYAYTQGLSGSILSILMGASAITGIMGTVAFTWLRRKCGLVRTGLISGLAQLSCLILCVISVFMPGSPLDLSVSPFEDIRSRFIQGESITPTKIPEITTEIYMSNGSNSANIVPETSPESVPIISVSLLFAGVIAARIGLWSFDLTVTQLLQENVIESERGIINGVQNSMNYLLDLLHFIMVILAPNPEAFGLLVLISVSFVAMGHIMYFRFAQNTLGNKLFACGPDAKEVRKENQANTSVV


Columns and labels:
human ferroportin 1 [1] = target: T1, human ferroportin 1; assay: cell-based or functional assay
FPN1-GFP [2] = target: T2, FPN1-GFP; assay: cell-based or functional assay
FPN1-GFP [3] = target: T2, FPN1-GFP; assay: cell-based or functional assay; remark: listed apart in the source
FPN1-GFP [4] = target: T2, FPN1-GFP; assay: SPR (Biacore T100) at 37 °C; FPN1-GFP captured on rabbit anti-GFP antibody; KD of Fab 1G9 against KD of Fab 34A9
human ferroportin 1 [5] = target: T1, human ferroportin 1; assay: inhibition of 30 nM biotinylated hepcidin binding to FPN/293 cells, ELISA read-out; antibody at 125 nM; mean
human ferroportin 1 [6] = target: T1, human ferroportin 1; assay: inhibition of 30 nM biotinylated hepcidin binding to FPN/293 cells, ELISA read-out; antibody at 500 nM; mean
human ferroportin 1 [7] = target: T1, human ferroportin 1; assay: inhibition of 30 nM biotinylated hepcidin binding to FPN/293 cells, ELISA read-out; antibody at 7.8 nM; mean
human ferroportin 1 [8] = target: T1, human ferroportin 1; assay: inhibition of 30 nM biotinylated hepcidin binding to FPN/293 cells, ELISA read-out; antibody at 2000 nM; mean
human ferroportin 1 [9] = target: T1, human ferroportin 1; assay: inhibition of 30 nM biotinylated hepcidin binding to FPN/293 cells, ELISA read-out; antibody at 31.25 nM; mean

Molecule | Percent (%) Inhibition of Mature Human Hepcidin-induced Internalization and Degradation In Vitro; Mab at 7.4 nM (FPN1-GFP [2]) [%] | Percent (%) Inhibition of Mature Human Hepcidin-induced Internalization and Degradation In Vitro; Mab at 22 nM (FPN1-GFP [2]) [%] | Percent (%) Inhibition of Mature Human Hepcidin-induced Internalization and Degradation In Vitro; Mab at 67 nM (FPN1-GFP [2]) [%] | Percent (%) Inhibition of Mature Human Hepcidin-induced Internalization and Degradation In Vitro; Mab at 200 nM (FPN1-GFP [2]) [%] | Percent (%) Inhibition of Mature Human Hepcidin-induced Internalization and Degradation In Vitro; Mab at 600 nM (FPN1-GFP [2]) [%] | Relative IC50 (FPN1-GFP [3]) [nM] | Top % Inhibition (hepcidin-25-induced internalization and degradation of FPN1-GFP) (FPN1-GFP [3]) [%] | Absolute IC50 (FPN1-GFP [3]) [nM] | EC50 (nM); inhibition of hepcidin induced ferritin increase in Caco-2 cells (human ferroportin 1 [1]) [nM] | % Inhibition (human ferroportin 1 [5]) [%] | % Inhibition (human ferroportin 1 [6]) [%] | % Inhibition (human ferroportin 1 [7]) [%] | % Inhibition (human ferroportin 1 [8]) [%] | % Inhibition (human ferroportin 1 [9]) [%] | other results
Mouse IgG1, a negative control (antibody) | – | – | – | – | – | – | – | – | – | – | – | – | – | – | % Inhibition; ferritin in Caco-2 cells with 100 nM hepcidin; 6.25 µg/mL mIgG1 (human ferroportin 1 [1]): 0%; % Inhibition; ferritin in Caco-2 cells with 100 nM hepcidin; 12.5 µg/mL mIgG1 (human ferroportin 1 [1]): 0%; % Inhibition; ferritin in Caco-2 cells with 100 nM hepcidin; 25 µg/mL mIgG1 (human ferroportin 1 [1]): 7.2%; % Inhibition; ferritin in Caco-2 cells with 100 nM hepcidin; 50 µg/mL mIgG1 (human ferroportin 1 [1]): 0%; % Inhibition; ferritin in Caco-2 cells with 100 nM hepcidin; 100 µg/mL mIgG1 (human ferroportin 1 [1]): 3.5%; % Inhibition; ferritin in Caco-2 cells with 100 nM hepcidin; 200 µg/mL mIgG1 (human ferroportin 1 [1]): 11.6%; Ferritin (ng)/ protein (µg); Caco-2 cells with 100 nM hepcidin; 6.25 µg/mL mIgG1 (human ferroportin 1 [1]): 10.4 ng/µg; Ferritin (ng)/ protein (µg); Caco-2 cells with 100 nM hepcidin; 12.5 µg/mL mIgG1 (human ferroportin 1 [1]): 10 ng/µg; Ferritin (ng)/ protein (µg); Caco-2 cells with 100 nM hepcidin; 25 µg/mL mIgG1 (human ferroportin 1 [1]): 9.6 ng/µg; Ferritin (ng)/ protein (µg); Caco-2 cells with 100 nM hepcidin; 50 µg/mL mIgG1 (human ferroportin 1 [1]): 10.1 ng/µg; Ferritin (ng)/ protein (µg); Caco-2 cells with 100 nM hepcidin; 100 µg/mL mIgG1 (human ferroportin 1 [1]): 9.78 ng/µg; Ferritin (ng)/ protein (µg); Caco-2 cells with 100 nM hepcidin; 200 µg/mL mIgG1 (human ferroportin 1 [1]): 9.4 ng/µg
Mab 34A9 (antibody, mouse IgG1, kappa, V domains shown) VH: QVQLKQSGAELVRPGTSVKVSCKASGYAFTNFLIEWLKQRPGQGLEWIGTINPETGGTKYNEKFRGKATLTADKSSSTAYMQLNSLTSDDSAVYFCVREFFDYWGQGTSLTVSS VL: ETTVTQSPSYLAASPGETITINCRASKSISKYLAWFQEKPGKTNKLLIYAGSTLHSGIPSRFSGSGSGTDFTLTISSLEPEDFAMYYCQQHNEYPYTFGGGTKLELKR | 4.8 | 14.1 | 23.6 | 30.8 | 39 | 58.9 | 55.2 | – | – | – | – | – | – | – | –
Fab 1G9 (Fab, V domains shown, also called mouse 1G9; mouse Fab 1G9) VH: QVQLKQSGAELVRPGTSVKVSCKASGYAFTSFLIEWLKQRPGQGLEWIGTINPRTGGTKYNEKFRGKATLTADKSSSTAYMQLNSLTSDDSAVYFCVREFFDYWGQGTSLTVSS VL: ETTVTQSPSYLAASPGETITINCRASKSISKYLAWFQEKPGKTNKLLIYAGSKLHSGIPSRFSGSGSGTDFTLTISSLEPEDFAMYYCFQHNEYPYTFGGGTKLELK | – | – | – | – | – | – | – | – | – | – | – | – | – | – | fold improvement in binding affinity against Fab 34A9 (FPN1-GFP [4]): ~5 fold
Mab 4A10-3 (antibody, human IgG4 S228P, kappa, F234A L235A, V domains shown) VH: QVQLVQSGAEVKKPGSSVKVSCKASGYAFTSFLIEWVRQAPGQGLEWMGTSNPRTGGRKYKEKFRGRVTITADKSTSTAYMELSSLRSEDTAVYYCAREFFDYWGQGTTVTVSS VL: DIQMTQSPSSLSASVGDRVTITCRASKSISKYTAWYQQKPGKAPKLLIYAGSKLHWGVPSRFSGSGSGTDFTLTISSLQPEDFATYYCQQHNEYPYTFGGGTKVEIKR | – | – | – | – | – | 4.7 | 85.9 | 5.7 | 37 | 59.3 | 84.9 | 5.4 | 95.3 | 13.4 | –

Further lines, with some results ahead:

Percent (%) Inhibition of Mature Human Hepcidin-induced Internalization and Degradation In Vitro; Mab at 7.4 nM (FPN1-GFP [2]) [%] | Percent (%) Inhibition of Mature Human Hepcidin-induced Internalization and Degradation In Vitro; Mab at 22 nM (FPN1-GFP [2]) [%] | Percent (%) Inhibition of Mature Human Hepcidin-induced Internalization and Degradation In Vitro; Mab at 67 nM (FPN1-GFP [2]) [%] | Percent (%) Inhibition of Mature Human Hepcidin-induced Internalization and Degradation In Vitro; Mab at 200 nM (FPN1-GFP [2]) [%] | Percent (%) Inhibition of Mature Human Hepcidin-induced Internalization and Degradation In Vitro; Mab at 600 nM (FPN1-GFP [2]) [%] | Relative IC50 (FPN1-GFP [3]) [nM] | Top % Inhibition (hepcidin-25-induced internalization and degradation of FPN1-GFP) (FPN1-GFP [3]) [%] | Absolute IC50 (FPN1-GFP [3]) [nM] | EC50 (nM); inhibition of hepcidin induced ferritin increase in Caco-2 cells (human ferroportin 1 [1]) [nM] | % Inhibition (human ferroportin 1 [5]) [%] | % Inhibition (human ferroportin 1 [6]) [%] | % Inhibition (human ferroportin 1 [7]) [%] | % Inhibition (human ferroportin 1 [8]) [%] | % Inhibition (human ferroportin 1 [9]) [%] | Molecule | other results
24.3 | 49.9 | 61.8 | 62.4 | 67.9 | 9.2 | 69 | 18.8 | – | – | – | – | – | – | Mab 1G9 (antibody, mouse IgG1, kappa, V domains shown) VH: QVQLKQSGAELVRPGTSVKVSCKASGYAFTSFLIEWLKQRPGQGLEWIGTINPRTGGTKYNEKFRGKATLTADKSSSTAYMQLNSLTSDDSAVYFCVREFFDYWGQGTSLTVSS VL: ETTVTQSPSYLAASPGETITINCRASKSISKYLAWFQEKPGKTNKLLIYAGSKLHSGIPSRFSGSGSGTDFTLTISSLEPEDFAMYYCFQHNEYPYTFGGGTKLELKR | –
28.1 | 50.2 | 55.7 | 63.8 | 66.4 | 10.2 | 86.8 | 13.7 | 360 | – | – | – | – | – | Mab 3D8 (antibody, human IgG4 S228P, kappa, F234A L235A, V domains shown) VH: QVQLVQSGAEVKKPGSSVKVSCKASGYAFTSFLIEWVRQAPGQGLEWMGTSNPRTGGTKYKEKFRGRVTITADKSTSTAYMELSSLRSEDTAVYYCAREFFDYWGQGTTVTVSS VL: DIQMTQSPSSLSASVGDRVTITCRASKSISKYTAWYQQKPGKAPKLLIYAGSKLHSGVPSRFSGSGSGTDFTLTISSLQPEDFATYYCQQHNEYPYTFGGGTKVEIKR | –
– | – | – | – | – | 4.8 | 81.6 | 6.2 | 193 | 76.5 | 99.8 | -0.1 | 85.1 | 27.5 | Mab L2.2-4 (antibody, human IgG4 S228P, kappa, F234A L235A, V domains shown) VH: QVQLVQSGAEVKKPGSSVKVSCKASGYAFTSFLIEWVRQAPGQGLEWMGTSNPRTGGRKYKEKFRGRVTITADKSTSTAYMELSSLRSEDTAVYYCAREFFDYWGQGTTVTVSS VL: DIQMTQSPSSLSASVGDRVTITCRASKSISKYTAWYQQKPGKAPKLLIYAGSKLRSGVPSRFSGSGSGTDFTLTISSLQPEDFATYYCQQHNEYPYTFGGGTKVEIKR | –
– | – | – | – | – | 3.7 | 92.6 | 3.8 | 28 | 88.4 | 81.6 | 18.7 | 79.9 | 32.1 | Mab Combi11 (antibody, human IgG4 S228P, kappa, F234A L235A, V domains shown) VH: QVQLVQSGAEVKKPGSSVKVSCKASGYAFTSFLIEWVRQAPGQGLEWMGTSNPRTGRTKYKSKFRGRVTITADKSTSTAYMELSSLRSEDTAVYYCAREFFDYWGQGTTVTVSS VL: DIQMTQSPSSLSASVGDRVTITCRASKSISKYTAWYQQKPGKAPKLLIYAGSKRHWGVPSRFSGSGSGTDFTLTISSLQPEDFATYYCQQHNEYPYTFGGGTKVEIKR | –
